Target: C-terminal region of IbOr (IbOr-C), recombinant (sweetpotato (Ipomoea batatas))
Experiment: native gel or EMSA; 10% native PAGE gel, silver-stained; recombinant IbOr and truncated fragments

- stoichiometry N: 3
Substance: C-terminal region of IbOr (IbOr-C), recombinant (domain or fragment)
